According to patent US20090098123A1 (ROCKEFELLER UNIVERSITY, published 2009):

Legend:
human CD81 (human) = human CD81 (human) (UniProt P60033); assay: cell-based or functional assay
[1] = molecular target: GFP-CLDN1 with a single FLAG epitope inserted in EL1 at position F6 (human) (UniProt O95832); assay: cell-based or functional assay
[2] = molecular target: GFP-CLDN1 with a single FLAG epitope inserted in EL1 at position F8 (human) (UniProt O95832); assay: cell-based or functional assay
[3] = molecular target: GFP-CLDN1 with a single FLAG epitope inserted in EL1 at position F9 (human) (UniProt O95832); assay: cell-based or functional assay
[4] = molecular target: CLDN1 F10x3 (GFP-CLDN1 with a triple FLAG epitope inserted in EL1 at position F10) (human) (UniProt O95832); assay: cell-based or functional assay
[5] = molecular target: T1, J6/JFH HCVcc (cell culture infectious HCV particles of the chimeric genotype 2a J6/JFH genome) (Hepatitis C virus genotype 2a, isolate …, UniProt P26660 192-383; P26660 384-750); assay: HCVcc bound to transduced CHO cells 2 h at 37 C; cell-associated HCV RNA by real-time RT-PCR
T1 construct: A whole enveloped virion, not a single protein

JS81 anti-CD81 antibody (BD Pharmingen)
time after the temperature shift at which antibody addition still gives half-maximal inhibition of HCVpp infection (synchronized infection) (human CD81 (human)): 18 min

anti-FLAG M2 monoclonal antibody (Sigma)
reduction of HCVpp permissiveness (luciferase) of 293T cells expressing the clone, in the presence of antibody [1]: < 90%
reduction of HCVpp permissiveness (luciferase) of 293T cells expressing the clone, in the presence of antibody [2]: < 45%
reduction of HCVpp permissiveness (luciferase) of 293T cells expressing the clone, in the presence of antibody [3]: < 62%
time after the temperature shift at which antibody addition still gives half-maximal inhibition of HCVpp infection (synchronized infection) [4]: 73 min

B1: human CLDN1 (Claudin-1), wild type (receptor)
chain: MANAGLQLLGFILAFLGWIGAIVSTALPQWRIYSYAGDNIVTAQAMYEGLWMSCVSQSTGQIQCKVFDSLLNLSSTLQATRALMVVGILLGVIAIFVATVGMKCMKCLEDDEVQKMRMAVIGGAIFLLAGLAILVATAWYGNRIVQEFYDPMTPVNARYEFGQALFTGWAAASLCLLGGALLCCSCPRKTTSYPTPRPYPKPAPSSGKDYV
notes: also called wild-type CLDN1
binding result [5]: no binding (tested: MOI ~0.5)

B2: human CD81 (receptor)
chain: MGVEGCTKCIKYLLFVFNFVFWLAGGVILGVALWLRHDPQTTNLLYLELGDKPAPNTFYVGIYILIAVGAVMMFVGFLGCYGAIQESQCLLGTFFTCLVILFACEVAAGIWGFVNKDQIAKDVKQFYDQALQQAVVDDDANNAKAVVKTFHETLDCCGSSTLTALTTSVLKNNLCPSGSNIISNLFKEDCHQKIDDLFSGKLYLIGIAAIVVAVIMIFEMILSMVLCCGIRNSSVY
notes: whole, on cells
binding result [5]: no binding (tested: MOI ~0.5)
